Measurements from patent publication US20250090700A1 (published 2025).
Blank lines part the entries; values can stand above or below the binder they belong to.

Molecular target: synthetic sugar epitope
Assay: Biacore (SPR)

- Kd: 3.9 nM
B1: IgG1 (antibody, V domains shown)
VH: QVQLVQSGAEVKKPGASVKVSCKASGFSFTTYWITWVRQAPGQGLEWIGMIHPSDAETRLSQTFKDKATLTADKSTSTAYMELSSLRSEDTAVYYCARDFDVWGQGTLVTVSS
VL: DVVMTQSPLSLPVTLGQPASISCRSSQNIVHQNGQTYLGWYLQKPGQSPQLLIFRVSNRFSGVPDRFSGSGSGTDFTLKISRVEAEDVGVYYCFQGSHIPRTFGQGTRLEIK

- Kd: 3.1 nM
B2: IgG4PE (antibody, V domains shown)
VH: B1 VH
VL: B1 VL
